According to paper PMC11574045, “A cofactor-induced repressive type of transcription factor condensation can be induced by synthetic peptides to suppress tumorigenesis” (The EMBO Journal, 2024):

B1: THRA (protein, UniProt P10827 1-490, looked up)
Thyroid hormone receptor alpha: MEQKPSKVECGSDPEENSARSPDGKRKRKNGQCSLKTSMSGYIPSYLDKDEQCVVCGDKATGYHYRCITCEGCKGFFRRTIQKNLHPTYSCKYDSCCVIDKITRNQCQLCRFKKCIAVGMAMDLVLDDSKRVAKRKLIEQNRERRRKEEMIRSLQQRPEPTPEEWDLIHIATEAHRSTNAQGSHWKQRRKFLPDDIGQSPIVSMPDGDKVDLEAFSEFTKIITPAITRVVDFAKKLPMFSELPCEDQIILLKGCCMEIMSLRAAVRYDPESDTLTLSGEMAVKREQLKNGGLGVVSDAIFELGKSLSAFNLDDTEVALLQAVLLMSTDRSGLLCVDKIEKSQEAYLLAFEHYVNHRKHNIPHFWPKLLMKEREVQSSILYKGAAAEGRPGGSLGVHPEGQQLLGMHVVQGPQVRQLEQQLGEAGSLQGPVLQHQSPKSPQQRLLELLHRSGILHARAVCGEDDSSEADSPSSSEEEPEVCEDLAGNAASP
B2: TLE2 (protein, UniProt Q04725 1-743, looked up)
Transducin-like enhancer …: MYPQGRHPTPLQSGQPFKFSILEICDRIKEEFQFLQAQYHSLKLECEKLASEKTEMQRHYVMYYEMSYGLNIEMHKQAEIVKRLSGICAQIIPFLTQEHQQQVLQAVERAKQVTVGELNSLIGQQLQPLSHHAPPVPLTPRPAGLVGGSATGLLALSGALAAQAQLAAAVKEDRAGVEAEGSRVERAPSRSASPSPPESLVEEERPSGPGGGGKQRADEKEPSGPYESDEDKSDYNLVVDEDQPSEPPSPATTPCGKVPICIPARRDLVDSPASLASSLGSPLPRAKELILNDLPASTPASKSCDSSPPQDASTPGPSSASHLCQLAAKPAPSTDSVALRSPLTLSSPFTTSFSLGSHSTLNGDLSVPSSYVSLHLSPQVSSSVVYGRSPVMAFESHPHLRGSSVSSSLPSIPGGKPAYSFHVSADGQMQPVPFPSDALVGAGIPRHARQLHTLAHGEVVCAVTISGSTQHVYTGGKGCVKVWDVGQPGAKTPVAQLDCLNRDNYIRSCKLLPDGRSLIVGGEASTLSIWDLAAPTPRIKAELTSSAPACYALAVSPDAKVCFSCCSDGNIVVWDLQNQTMVRQFQGHTDGASCIDISDYGTRLWTGGLDNTVRCWDLREGRQLQQHDFSSQIFSLGHCPNQDWLAVGMESSNVEILHVRKPEKYQLHLHESCVLSLKFASCGRWFVSTGKDNLLNAWRTPYGASIFQSKESSSVLSCDISRNNKYIVTGSGDKKATVYEVVY
B3: TIEG (protein, UniProt Q13118 1-480, looked up)
Krueppel-like factor 10: MLNFGASLQQTAEERMEMISERPKESMYSWNKTAEKSDFEAVEALMSMSCSWKSDFKKYVENRPVTPVSDLSEEENLLPGTPDFHTIPAFCLTPPYSPSDFEPSQVSNLMAPAPSTVHFKSLSDTAKPHIAAPFKEEEKSPVSAPKLPKAQATSVIRHTADAQLCNHQTCPMKAASILNYQNNSFRRRTHLNVEAARKNIPCAAVSPNRSKCERNTVADVDEKASAALYDFSVPSSETVICRSQPAPVSPQQKSVLVSPPAVSAGGVPPMPVICQMVPLPANNPVVTTVVPSTPPSQPPAVCPPVVFMGTQVPKGAVMFVVPQPVVQSSKPPVVSPNGTRLSPIAPAPGFSPSAAKVTPQIDSSRIRSHICSHPGCGKTYFKSSHLKAHTRTHTGEKPFSCSWKGCERRFARSDELSRHRRTHTGEKKFACPMCDRRFMRSDHLTKHARRHLSAKKLPNWQMEVSKLNDIALPPTPAPTQ
B4: TOB1 (protein, UniProt P50616 1-345, looked up)
Protein Tob1: MQLEIQVALNFIISYLYNKLPRRRVNIFGEELERLLKKKYEGHWYPEKPYKGSGFRCIHIGEKVDPVIEQASKESGLDIDDVRGNLPQDLSVWIDPFEVSYQIGEKGPVKVLYVDDNNENGCELDKEIKNSFNPEAQVFMPISDPASSVSSSPSPPFGHSAAVSPTFMPRSTQPLTFTTATFAATKFGSTKMKNSGRSNKVARTSPINLGLNVNDLLKQKAISSSMHSLYGLGLGSQQQPQQQQQPAQPPPPPPPPQQQQQQKTSALSPNAKEFIFPNMQGQGSSTNGMFPGDSPLNLSPLQYSNAFDVFAAYGGLNEKSFVDGLNFSLNNMQYSNQQFQPVMAN
B5: TOX2 (protein, UniProt Q96NM4 1-488, looked up)
TOX high mobility group box …: MQQTRTEAVAGAFSRCLGFCGMRLGLLLLARHWCIAGVFPQKFDGDSAYVGMSDGNPELLSTSQTYNGQSENNEDYEIPPITPPNLPEPSLLHLGDHEASYHSLCHGLTPNGLLPAYSYQAMDLPAIMVSNMLAQDSHLLSGQLPTIQEMVHSEVAAYDSGRPGPLLGRPAMLASHMSALSQSQLISQMGIRSSIAHSSPSPPGSKSATPSPSSSTQEEESEVHFKISGEKRPSADPGKKAKNPKKKKKKDPNEPQKPVSAYALFFRDTQAAIKGQNPSATFGDVSKIVASMWDSLGEEQKQSSPDQGETKSTQANPPAKMLPPKQPMYAMPGLASFLTPSDLQAFRSGASPASLARTLGSKSLLPGLSASPPPPPSFPLSPTLHQQLSLPPHAQGALLSPPVSMSPAPQPPVLPTPMALQVQLAMSPSPPGPQDFPHISEFPSSSGSCSPGPSNPTSSGDWDSSYPSGECGISTCSLLPRDKSLYLT
B6: THAP8 (protein, UniProt Q8NA92 1-274, looked up)
THAP domain-containing …: MPKYCRAPNCSNTAGRLGADNRPVSFYKFPLKDGPRLQAWLQHMGCEHWVPSCHQHLCSEHFTPSCFQWRWGVRYLRPDAVPSIFSRGPPAKSQRRTRSTQKPVSPPPPLQKNTPLPQSPAIPVSGPVRLVVLGPTSGSPKTVATMLLTPLAPAPTPERSQPEVPAQQAQTGLGPVLGALQRRVRRLQRCQERHQAQLQALERLAQQLHGESLLARARRGLQRLTTAQTLGPEESQTFTIICGGPDIAMVLAQDPAPATVDAKPELLDTRIPSA
B7: TOX (protein, UniProt O94900 1-526, looked up)
Thymocyte …: MDVRFYPPPAQPAAAPDAPCLGPSPCLDPYYCNKFDGENMYMSMTEPSQDYVPASQSYPGPSLESEDFNIPPITPPSLPDHSLVHLNEVESGYHSLCHPMNHNGLLPFHPQNMDLPEITVSNMLGQDGTLLSNSISVMPDIRNPEGTQYSSHPQMAAMRPRGQPADIRQQPGMMPHGQLTTINQSQLSAQLGLNMGGSNVPHNSPSPPGSKSATPSPSSSVHEDEGDDTSKINGGEKRPASDMGKKPKTPKKKKKKDPNEPQKPVSAYALFFRDTQAAIKGQNPNATFGEVSKIVASMWDGLGEEQKQVYKKKTEAAKKEYLKQLAAYRASLVSKSYSEPVDVKTSQPPQLINSKPSVFHGPSQAHSALYLSSHYHQQPGMNPHLTAMHPSLPRNIAPKPNNQMPVTVSIANMAVSPPPPLQISPPLHQHLNMQQHQPLTMQQPLGNQLPMQVQSALHSPTMQQGFTLQPDYQTIINPTSTAAQVVTQAMEYVRSGCRNPPPQPVDWNNDYCSSGGMQRDKALYLT
B8: THRB (protein, UniProt P10828 1-461, looked up)
Thyroid hormone receptor beta: MTPNSMTENGLTAWDKPKHCPDREHDWKLVGMSEACLHRKSHSERRSTLKNEQSSPHLIQTTWTSSIFHLDHDDVNDQSVSSAQTFQTEEKKCKGYIPSYLDKDELCVVCGDKATGYHYRCITCEGCKGFFRRTIQKNLHPSYSCKYEGKCVIDKVTRNQCQECRFKKCIYVGMATDLVLDDSKRLAKRKLIEENREKRRREELQKSIGHKPEPTDEEWELIKTVTEAHVATNAQGSHWKQKRKFLPEDIGQAPIVNAPEGGKVDLEAFSHFTKIITPAITRVVDFAKKLPMFCELPCEDQIILLKGCCMEIMSLRAAVRYDPESETLTLNGEMAVTRGQLKNGGLGVVSDAIFDLGMSLSSFNLDDTEVALLQAVLLMSSDRPGLACVERIEKYQDSFLLAFEHYINYRKHHVTHFWPKLLMKVTDLRMIGACHASRFLHMKVECPTELFPPLFLEVFED

What follows are molecules tested on HEK293FT cells transfected with TF library (assay: Screening of TF condensates based on fluorescent puncta). Settings: Figure 1B numerical data; TF library screen, one value per transcriptional factor.
Type: cell-based
In short: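 Condensate formation is scored as Alexa 488-labelled puncta after Flag- or GAL4-tag immunostaining of fixed HEK293FT cells expressing individual TFs, with a 12 h glucose-free or glucose-containing culture preceding fixation.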

Molecule | Z score of condensed fraction
B1 | -0.4575
B2 | 0.1994
B3 | 1.047
B4 | -0.3688
B5 | 2.501
B6 | 1.115
B7 | -0.4918
B8 | -0.3414
